IC50 and Kd data for 3 sequences are collected here from the Immune Epitope Database (IEDB).

The target of experiment [1] is HLA-B*18:01. The experiment is described as follows: IEDB peptide-MHC binding, purified MHC/competitive/fluorescence; ≥ and ≤ were set here for values at or beyond the usual limits of such assays. The settings on record: source organism: Homo sapiens.
The target in the next experiment is HLA-B*35:01. Described as above. The settings on record: source organism: Homo sapiens.
Another experiment deals with HLA-B*40:02. The experiment is described as above. Particulars: source organism: Homo sapiens.
Experiment [2] addresses HLA-A*24:02. The experiment is described as above. Particulars: source organism: Homo sapiens.
The target of the next experiment is HLA-B*51:01. The description is as above. Particulars: source organism: Homo sapiens.
In the next experiment the target is HLA-B*44:03. Described as above. Particulars: source organism: Homo sapiens.
The target of experiment [3] is HLA-A*68:02. The experiment is described as above. The settings on record: source organism: Homo sapiens.
The next experiment has as its target HLA-B*37:01. The description is as above. Particulars: source organism: Homo sapiens.
Experiment [4] concerns the target HLA-A*11:01. The description is as above. The settings on record: source organism: Homo sapiens.
For experiment [5], the target named is HLA-B*08:01. The description is as above. The settings on record: source organism: Homo sapiens.
Experiment [6] has as its target HLA-B*58:01. The experiment is described as above. The settings on record: source organism: Homo sapiens.
The target in experiment [7] is HLA-B*07:02. Described as above. The settings on record: source organism: Homo sapiens.
The target of experiment [8] is HLA-A*31:01. Described as above. Particulars: source organism: Homo sapiens.
In another experiment the target is HLA-B*53:01. Described as above. The settings on record: source organism: Homo sapiens.
The target of the next experiment is HLA-A*25:01. The experiment is described as above. The settings on record: source organism: Homo sapiens.
The target of experiment [9] is HLA-A*01:01. Described as above. The settings on record: source organism: Homo sapiens.
Another experiment has as its target HLA-A*29:02. The experiment is described as above. The settings on record: source organism: Homo sapiens.
A further experiment addresses HLA-A*02:01. Described as above. Particulars: source organism: Homo sapiens.
The target of the next experiment is HLA-B*14:02. Described as above. Particulars: source organism: Homo sapiens.
The next experiment has as its target HLA-A*03:01. The description is as above. The settings on record: source organism: Homo sapiens.
The next experiment concerns the target HLA-A*24:03. The experiment is described as follows: IEDB peptide-MHC binding, purified MHC/direct/fluorescence; filed as Kd, often an IC50 or EC50 that approximates it; ≥ and ≤ were set here for values at or beyond the usual limits of such assays. Particulars: source organism: Entamoeba histolytica HM-1:IMSS.
The next experiment addresses HLA-C*06:02. The experiment is described as follows: IEDB peptide-MHC binding, purified MHC/competitive/fluorescence; filed as Kd, often an IC50 or EC50 that approximates it; ≥ and ≤ were set here for values at or beyond the usual limits of such assays. Particulars: source organism: Entamoeba histolytica.
In a further experiment the target is HLA-C*14:02. Described as above. The settings on record: source organism: Entamoeba histolytica.
Experiment [10] addresses HLA-A*24:02. The experiment is described as above. The settings on record: source organism: Entamoeba histolytica.
The next experiment deals with HLA-B*45:06. Described as above.
For the next experiment, the target named is HLA-B*83:01. The experiment is described as above.
The target of another experiment is HLA-A*32:07. Described as above. The settings on record: source organism: Entamoeba histolytica.
A further experiment deals with HLA-A*32:15. The description is as above. Particulars: source organism: Entamoeba histolytica.
The target of the next experiment is HLA-B*15:42. The description is as above.
For another experiment, the target named is HLA-C*04:01. Described as above. Particulars: source organism: Entamoeba histolytica.
Experiment [11] concerns the target HLA-B*18:01. The experiment is described as follows: IEDB peptide-MHC binding, purified MHC/direct/fluorescence; filed as Kd, often an IC50 or EC50 that approximates it; ≥ and ≤ were set here for values at or beyond the usual limits of such assays. The settings on record: source organism: Mycobacterium tuberculosis.
For another experiment, the target named is HLA-A*26:02. Described as above. Particulars: source organism: Mycobacterium tuberculosis str. Haarlem.
For the next experiment, the target named is HLA-B*46:01. Described as above. The settings on record: source organism: Mycobacterium tuberculosis.
A further experiment deals with HLA-B*40:01. The experiment is described as above. The settings on record: source organism: Mycobacterium tuberculosis.
The target in a further experiment is HLA-B*08:03. The experiment is described as above. The settings on record: source organism: Mycobacterium tuberculosis str. Haarlem.
Experiment [12] addresses HLA-A*68:02. Described as above. Particulars: source organism: Mycobacterium tuberculosis.
The next experiment has as its target HLA-B*57:01. Described as above. The settings on record: source organism: Mycobacterium tuberculosis.
Another experiment addresses HLA-B*08:02. The experiment is described as above. Particulars: source organism: Mycobacterium tuberculosis str. Haarlem.
Experiment [13] addresses HLA-A*11:01. The experiment is described as above. The settings on record: source organism: Mycobacterium tuberculosis.
Experiment [14] has as its target HLA-B*08:01. Described as above. The settings on record: source organism: Mycobacterium tuberculosis str. Haarlem.
Experiment [15] deals with HLA-B*58:01. Described as above. The settings on record: source organism: Mycobacterium tuberculosis.
In experiment [16] the target is HLA-B*07:02. Described as above. The settings on record: source organism: Mycobacterium tuberculosis.
The target in experiment [17] is HLA-A*31:01. The description is as above. The settings on record: source organism: Mycobacterium tuberculosis.
The target of another experiment is HLA-B*15:17. Described as above. The settings on record: source organism: Mycobacterium tuberculosis.
Experiment [18] addresses HLA-A*01:01. Described as above. The settings on record: source organism: Mycobacterium tuberculosis.
For another experiment, the target named is HLA-B*48:01. The experiment is described as above. Particulars: source organism: Mycobacterium tuberculosis.
The next experiment deals with HLA-A*69:01. Described as above. Particulars: source organism: Mycobacterium tuberculosis.
For another experiment, the target named is HLA-B*15:01. Nature of the experiment: IEDB peptide-MHC binding, purified MHC/competitive/fluorescence; filed as Kd, often an IC50 or EC50 that approximates it; ≥ and ≤ were set here for values at or beyond the usual limits of such assays. The settings on record: source organism: Mycobacterium tuberculosis C.
For a further experiment, the target named is HLA-B*27:05. The description is as above. The settings on record: source organism: Mycobacterium tuberculosis C.
The next experiment addresses HLA-A*26:03. The description is as above. The settings on record: source organism: Mycobacterium tuberculosis C.
For another experiment, the target named is HLA-A*02:06. Described as above. The settings on record: source organism: Mycobacterium tuberculosis C.
Where [19] appears, read: source organism: Entamoeba histolytica.
Where [20] appears, read: source organism: Mycobacterium tuberculosis C.

YPDPVIKV: the IC50 with HLA-B*18:01 [1] is 0.296 µM; in the experiment with HLA-B*35:01, 0.737 µM; with HLA-B*40:02, 0.54 µM; with HLA-A*24:02 [2] it was at least 20 µM; with HLA-B*51:01, at least 20 µM; with HLA-B*44:03, at least 20 µM. Also, the IC50 was 0.317 µM with HLA-A*68:02 [3]; at least 20 µM with HLA-B*37:01; at least 20 µM in the experiment with HLA-A*11:01 [4]; at least 20 µM in the experiment with HLA-B*08:01 [5]; at least 20 µM in the experiment with HLA-B*58:01 [6]; 1.46 µM with HLA-B*07:02 [7]. Moreover, the IC50 was at least 20 µM in the experiment with HLA-A*31:01 [8]; at least 20 µM in the experiment with HLA-B*53:01; at least 20 µM in the experiment with HLA-A*25:01; at least 20 µM with HLA-A*01:01 [9]; at least 20 µM with HLA-A*29:02; 4.97 µM with HLA-A*02:01. Moreover, the 50% inhibitory concentration (IC50) with HLA-B*14:02 and with HLA-A*03:01 was at least 20 µM in each case.

Turning to SYMSTFPLF, the Kd with HLA-A*24:03 is at most 0.001 µM; with HLA-C*06:02 it was 0.613 µM; in the experiment with HLA-C*14:02 it was at most 0.0001 µM; in the experiment with HLA-A*24:02 [10], at most 0.0001 µM; with HLA-B*45:06 (setting [19]), at least 5 µM; with HLA-B*83:01 (setting [19]) it was at least 5 µM. For the same sequence, the Kd with HLA-A*32:07 was 0.0005 µM; with HLA-A*32:15, 0.784 µM; in the experiment with HLA-B*15:42 (setting [19]), at least 5 µM; with HLA-C*04:01 it was 0.0883 µM.

In the case of ALFDRPAFK, the Kd with HLA-B*18:01 [11], with HLA-A*26:02, with HLA-B*46:01, in the experiment with HLA-B*40:01, with HLA-B*08:03 and with HLA-A*68:02 [12] was at least 20 µM in each case. The Kd with HLA-B*57:01 was at least 20 µM; in the experiment with HLA-B*08:02, at least 20 µM; with HLA-A*11:01 [13], 0.024 µM; in the experiment with HLA-B*08:01 [14] it was at least 20 µM; with HLA-B*58:01 [15], at least 20 µM; with HLA-B*07:02 [16], at least 20 µM. Also, the Kd in the experiment with HLA-A*31:01 [17] is 0.0047 µM; with HLA-B*15:17 it was at least 20 µM; in the experiment with HLA-A*01:01 [18], at least 20 µM; with HLA-B*48:01 it was at least 20 µM; with HLA-A*69:01, at least 20 µM; with HLA-B*15:01, at least 20 µM. For the same sequence, the Kd is at least 20 µM in the experiment with HLA-B*27:05; at least 5 µM in the experiment with HLA-B*45:06 (setting [20]); at least 5 µM with HLA-B*83:01 (setting [20]); at least 20 µM in the experiment with HLA-A*26:03; at least 5 µM with HLA-B*15:42 (setting [20]); 0.325 µM with HLA-A*02:06.
